Data: IntAct's records for PubMed 19966221

B1: mRNA-decapping enzyme 1A (Homo sapiens), Q9NPI6 (parent)
chain: MEALSRAGQEMSLAALKQHDPYITSIADLTGQVALYTFCPKANQWEKTDIEGTLFVYRRSASPYHGFTIVNRLNMHNLVEPVNKDLEFQLHEPFLLYRNASLSIYSIWFYDKNDCHRIAKLMADVVEEETRRSQQAARDKQSPSQANGCSDHRPIDILEMLSRAKDEYERNQMGDSNISSPGLQPSTQLSNLGSTETLEEMPSGSQDKSAPSGHKHLTVEELFGTSLPKEQPAVVGLDSEEMERLPGDASQKEPNSFLPFPFEQLGGAPQSETLGVPSAAHHSVQPEITTPVLITPASITQSNEKHAPTYTIPLSPVLSPTLPAEAPTAQVPPSLPRNSTMMQAVKTTPRQRSPLLNQPVPELSHASLIANQSPFRAPLNVTNTAGTSLPSVDLLQKLRLTPQHDQIQTQPLGKGAMVASFSPAAGQLATPESFIEPPSKTAAARVAASASLSNMVLAPLQSMQQNQDPEVFVQPKVLSSAIPVAGAPLVTATTTAVSSVLLAPSVFQQTVTRSSDLERKASSPSPLTIGTPESQRKPSIILSKSQLQDTLIHLIKNDSSFLSTLHEVYLQVLTKNKDNHNL
B2: mRNA-decapping enzyme 1A (Homo sapiens), Q9NPI6 (parent)
chain: B1 chain
partner: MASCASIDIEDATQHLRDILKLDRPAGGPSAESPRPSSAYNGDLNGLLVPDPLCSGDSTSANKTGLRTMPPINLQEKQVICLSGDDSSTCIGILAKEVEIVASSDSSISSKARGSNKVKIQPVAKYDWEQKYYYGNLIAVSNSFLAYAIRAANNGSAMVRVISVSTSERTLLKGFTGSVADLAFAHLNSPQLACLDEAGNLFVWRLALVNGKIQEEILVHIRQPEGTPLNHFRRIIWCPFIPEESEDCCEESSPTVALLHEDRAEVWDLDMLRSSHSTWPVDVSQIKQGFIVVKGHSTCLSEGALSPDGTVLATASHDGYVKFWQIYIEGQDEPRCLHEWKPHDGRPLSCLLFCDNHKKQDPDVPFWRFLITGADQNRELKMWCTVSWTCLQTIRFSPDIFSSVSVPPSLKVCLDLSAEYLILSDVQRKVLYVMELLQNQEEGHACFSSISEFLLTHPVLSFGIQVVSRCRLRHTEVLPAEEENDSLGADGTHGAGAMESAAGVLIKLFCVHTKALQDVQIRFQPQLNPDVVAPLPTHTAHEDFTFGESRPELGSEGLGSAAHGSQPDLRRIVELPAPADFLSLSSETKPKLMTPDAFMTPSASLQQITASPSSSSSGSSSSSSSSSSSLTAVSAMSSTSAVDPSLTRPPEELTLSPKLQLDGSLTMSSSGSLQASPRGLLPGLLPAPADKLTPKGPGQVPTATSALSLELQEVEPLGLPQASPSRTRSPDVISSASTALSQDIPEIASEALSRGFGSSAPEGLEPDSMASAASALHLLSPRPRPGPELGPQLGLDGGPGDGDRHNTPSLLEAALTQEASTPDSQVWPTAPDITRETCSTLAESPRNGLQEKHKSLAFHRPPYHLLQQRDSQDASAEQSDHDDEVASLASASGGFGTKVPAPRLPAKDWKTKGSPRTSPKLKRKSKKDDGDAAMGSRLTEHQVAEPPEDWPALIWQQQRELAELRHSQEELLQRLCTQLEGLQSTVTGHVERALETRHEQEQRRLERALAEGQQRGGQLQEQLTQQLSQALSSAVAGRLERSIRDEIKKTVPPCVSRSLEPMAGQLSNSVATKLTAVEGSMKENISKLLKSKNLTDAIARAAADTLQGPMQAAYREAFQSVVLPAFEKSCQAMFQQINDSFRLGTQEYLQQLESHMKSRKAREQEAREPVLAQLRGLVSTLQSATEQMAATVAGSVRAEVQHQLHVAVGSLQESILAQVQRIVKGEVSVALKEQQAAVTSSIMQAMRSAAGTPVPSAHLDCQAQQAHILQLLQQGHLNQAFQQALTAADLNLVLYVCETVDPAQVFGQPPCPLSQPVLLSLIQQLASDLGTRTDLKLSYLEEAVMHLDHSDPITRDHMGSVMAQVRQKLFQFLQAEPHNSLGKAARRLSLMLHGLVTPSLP

Variants of: B1
Conditions: with dcp2_human DCP2, Q8IU60

Row | effect of a mutation on the interaction | Variant
1 | disrupting interaction | L554S;F561R;L565S
2 | disrupting interaction | I552S;I555R;L562E
3 | disrupting interaction | L551R;I555S;F561R;L565S

Variants of: B2
Conditions: with edc4_human EDC4, Q6P2E9

Row | effect of a mutation on the interaction | Variant
4 | disrupting interaction | I552S;I555R;L562E
5 | disrupting interaction | L551R;I555S;F561R;L565S
6 | disrupting interaction | L554S;F561R;L565S
